PMC9000915

Molecular target: gp41 subunit of ADA.CM.v4 Env on hVLPs (CTD truncated, stop codon at 756) (HIV-1 (subtype B isolate ADA))
Test: cryo-EM structure; cryo-ET with sub-tomogram averaging of Env on purified, AT-2-treated ADA.CM.v4 hVLPs; C3 map 9.13 Å, C1 map 10.67 Å; PDB 6ULC fitted as rigid body

gp41 subunit of ADA.CM.v4 Env on hVLPs (CTD truncated, stop codon at 756) (natural protein)
stoichiometry N: 3
